Patent US20260137799A1, “ANTI-MUC1* ANTIBODY DRUG COMPLEXES AND USES THEREOF” (Minerva Biotechnologies Corporation, priority 2023, published 2026)

How the values were obtained:
[1] = target: MUC1*45 (UniProt P15941 1110-1255); assay: cell-based or functional assay
[2] = test system: T47D; assay: xCELLigence impedance cytotoxicity, T47D; type: cell-based, human; settings: Example 9 (FIGS. 35-36); average over batches for DXd ADCs; read-out: IC50 for killing of breast cancer T47D-wt cells
Procedure, shortened: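 Adherent target cells plated at 5000/well on electrode plates were grown 24 h, then exposed to serially diluted ADCs in growth medium at 37° C/5% CO2. Killing was followed as real-time impedance loss over 40-120 h, normalized to 1% triton or 1 μM Taxol as 100% kill.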

[3] = test system: T47D-MUC1*; assay: xCELLigence impedance cytotoxicity, T47D-MUC1*; type: cell-based, human; settings: Example 9 (FIGS. 35-36); read-out: IC50, T47D cells engineered to express more MUC1*45
Protocol: (§1) An xCELLigence RTCA MP Instrument (Agilent) was used to assess real-time killing of target cancer cells). In the xCELLigence system, target cancer cells, which are adherent, are plated onto electrode array 96-well plates. Adherent cells insulate the electrode and increase the impedance. The number of adherent cancer cells is directly proportional to impedance. […] Therefore, increasing impedance reflects the growth of the cancer cells and decreasing impedance reflects the killing of the cancer cells.
(§2) Target Cancer cells (Table 9) were seeded onto a multi-electrode well plate at a density of 5000 cells/well (100 μL of a 50,000 cells/mL stock) and incubated for 24 hr in a 37° C./5% CO2 incubator. ADCs were prepared as a 2× solution in corresponding growth media and 100 μL of each concentration was added to target cells. As a positive control (100% cell killing) cells were treated with either 1% triton or 1 μM Taxol instead of ADC. After 40-120 hours incubation in a 37° C./5% CO2 incubator cell killing was assessed. In this assay, impedance is measured in real-time. When the adherent cancer cells are killed and come off the electrode surface, impedance (insulation) decreases.

[4] = test system: NCI-H1975; assay: xCELLigence impedance cytotoxicity, NCI-H1975; type: cell-based, human; settings: Example 9 (FIGS. 35-36); read-out: IC50 for killing of H1975-wt cells
Protocol: as §1, §2

[5] = test system: CFPAC1-wt pancreatic cancer cell line; assay: xCELLigence impedance cytotoxicity, CFPAC1; type: cell-based, human; settings: Example 9 (FIGS. 35-36); read-out: IC50, CFPAC1-wt pancreatic cancer cells
Protocol: as §1, §2
(§3) To directly compare the C2 and 3C2B1 anti-MUC1* antibodies as ADC targeting domains, a panel of MUC1* positive cancer cell lines representing different cancer types were treated with C2-deruxtecan versus 3C2B1-deruxtecan (FIG. 35) or C2-MC-VA-PAB-exatecan versus 3C2B1-MC-VA-PAB-exatecan (FIG. 36). In some cases, the cancer cells were engineered to express high levels of MUC1*45.

[6] = test system: H2110-wt lung cancer cell line; assay: xCELLigence impedance cytotoxicity, H2110; type: cell-based, human; settings: Example 9 (FIGS. 35-36); read-out: IC50, lung cancer H2110-wt cells
Protocol: as §1, §2, §3

[7] = test system: breast cancer, pancreatic cancer, and lung cancer cell lines; assay: Cytotoxicity of ADCs with additional linkers and toxins (FIGS. 30-31); type: cell-based; settings: breast cancer, pancreatic cancer, and lung cancer cells
Protocol: FIG. 30 is a table showing cytotoxicity of the indicated MUC1* ADCs against indicated cancer cells. IC50 values were determined from xCELLigence data. FIG. 30 discloses “GGFG” as SEQ ID NO: 160, “GGGG” as SEQ ID NO: 161, “GGVA” as SEQ ID NO: 162, “GGVG” as SEQ ID NO: 163.
FIG. 31 is a table showing cytotoxicity of the indicated MUC1* ADCs against indicated cancer cells. IC50 values were determined from PrestoBlue data.
An anti-MUC1* antibody was conjugated to several toxins via a number of different linkers (compounds VIII-XXII).

[8] = test system: MUC1* negative HEK-293-TN cells; assay: Bystander killing of non-target cells; type: cell-based
Protocol: The cell population was doped with H1975-MUC1*45-GFP cells as indicated. FIGS. 31A1-31A20 show the effect of C2-MC-GGFG-AM-DXd (SEQ ID NO: 160) on the non-target cells. […] FIGS. 31C1-31C20 show the effect of C2-MC-VA-PAB-exatecan on the non-target cells.
FIGS. 33A-33H show graphs of the integrated pixel density of non-target cancer cells as a function of doping cell population with cells expressing high amounts of MUC1*45. FIGS. 33A-33D show the effect when the cells were treated with C2-MC-GGFG-AM-DXd (SEQ ID NO: 160). FIGS. 33E-33H show the effect when the cells were treated with C2-MC-VA-PAB-exatecan.
In another experiment, we investigated the killing of off-target cells (MUC1* negative HEK-293-TN cells) as well as low antigen expressing target cells (H1975 lung cancer) due to a “bystander” effect (FIGS. 32A1-32D20, FIGS. 33A-33H and FIGS. 34A-34H). To assess the killing of non-target cells adjacent to cells with high MUC1* expression, we doped non-target cells expressing an mCherry marker with varying percentages of target cells that express GFP. 56 nM C2-MC-VA-PAB-exatecan killed nearly all the neighboring non-target cells when the cell population was doped with 30% of the high antigen expressing target cells (FIG. 32C17). […]

[9] = test system: low MUC1* expressing, mCherry H1975 lung cancer cells; assay: Bystander killing of low antigen expressing cancer cells; type: cell-based, human; settings: 56 nM ADC; population contained 30% high MUC1* expressing H1975-MUC1*-GFP cells

B1: C2-MC-VA-PAB-exatecan (antibody, mouse IgG1, kappa)
VH: EVQLEESGGGLVKPGGSLKLSCAASGFTFSGYAMSWVRQTPEKRLEWVATISSGGTYIYYPDSVKGRFTISRDNAKNTLYLQMSSLRSEDTAMYYCARLGGDNYYEYFDVWGAGTTVTVSSAKTTPPSVYAKTTPPSVYPLAPGSAAQTNSMVTLGCLVKGYFPEPVTVTWNSGSLSSGVHTFPAVLQSDLYTLSSSVTVPSSTWPSETVTCNVAHPASSTKVDKKIVPRDCGCKPCICTVPEVSSVFIFPPKPKDVLTITLTPKVTCVVVDISKDDPEVQFSWFVDDVEVHTAQTQPREEQFNSTFRSVSELPIMHQDWLNGKEFKCRVNSAAFPAPIEKTISKTKGRPKAPQVYTIPPPKEQMAKDKVSLTCMITDFFPEDITVEWQWNGQPAENYKNTQPIMDTDGSYFVYSKLNVQKSNWEAGNTFTCSVLHEGLHNHHTEKSLSHSPGK
VL: DIVITQSTASLGVSLGQRATISCRASKSVSTSGYSYMHWYQQRPGQPPKLLIYLASNLESGVPARFSGSGSGTDFTLNIHPVEEEDAATYYCQHSRELPFTFGGGTKLEIKRADAAPTVSADAAPTVSIFPPSSEQLTSGGASVVCFLNNFYPKDINVKWKIDGSERQNGVLNSWTDQDSKDSTYSMSSTLTLTKDEYERHNSYTCEATHKTSTSPIVKSFNRNEC
modifications: MC-VA-PAB-exatecan on reduced cysteine thiols of the antibody, sites not stated; MC-VA-PAB-exatecan on reduced cysteine thiols of the antibody, sites not stated; DAR 5.1
IC50, killing of H1975 cells engineered to express MUC1*45 (xCELLigence) [1]: 9 nM | IC50 [2]: 44 nM | IC50 [3]: 4 nM | IC50 [4]: 117 nM | IC50 [5]: 51 nM | IC50 [6]: 60 nM | activity compared to deruxtecan ADC [7]: enhanced activity | killing of neighboring non-target cells ([8]; 56 nM ADC, population doped with 30% H1975-MUC1*45-GFP target cells, 120 hours): nearly all | non-specific cytotoxicity ([8]; pure populations of non-target HEK-293-TN cells): limited amount of non-specific cytotoxicity | low MUC1* expressing cancer cells killed [9]: about 75%
